Data from patent US20240377400A1, “METHODS FOR TREATING A SUBTYPE OF COLORECTAL CANCER” (Cornell University, priority 2021, published 2024).
Entries after “also recorded” stand apart in the source; their conditions may differ.

Key:
[1] = system: Prkci^fl/flPrkcz^fl/fl; Villin-Cre tumors; experiment: scRNAseq, CellphoneDB and multiplex staining of Prkci^fl/flPrkcz^fl/fl; Villin-Cre tumors treated with PEGPH20; type: in vivo, mouse
From the text: FIG. 10A illustrates experimental design and workflow of scRNAseq. Tumors from Veh (n=5) and PEGPH20-treated mice (n=3) were dissected and digested into single-cell suspensions for sequencing.
Primary antibody dilutions were optimized individually at H220 retrieval using the Leica BondRx Automated IHC stainer and evaluated by a board-certified pathologist for specificity. Multiplexed staining was optimized and then performed using the Automated Opal 7-Color IHC Kit (NEL821001KT) from Akoya Biosciences. A library for spectral separation was generated by staining control tissue with each opal fluor conjugated to CD20. Slides were imaged in the Vectra Polaris Automated Quantitative Pathology Multispectral Imaging System. Exposure times were maximized under the constraint that no pixel saturates the detector (Patel and Rodig, 2020; Patel et al., 2019).
Tumors were minced thoroughly and digested by 0.5 mg/ml Liberase TH (Sigma) for 30 minutes at 37° C. Dead cells were removed by Annexin V (STEMCELL technologies). scRNAseq libraries were generated using the Chromium Single Cell 30 Reagent Kit v2 (10× Genomics). Cells were loaded onto the 10× Chromium Single Cell Platform (10× Genomics) at a concentration of 2,000 cells per μl (Single Cell 3′ library and Gel Bead Kit v.2) as described in the manufacturer's protocol (10× User Guide, Revision B). Generation of gel beads in emulsion (GEMs), barcoding, GEM-RT clean-up, complementary DNA amplification and library construction were all performed as per the manufacturer's protocol. Individual sample quality was checked using a Bioanalyzer Tapestation (Agilent). Qubit was used for library quantification before pooling. The final library pool was sequenced on an Illumina NovaSeq6000 instrument using a S1 flow cell. Average cell recovery for Prkci^f/fPrkcz^f/f; Villin-Cre tumors was […] with a total of 209,907 cells captured at a mean depth of 14,568 read per cell and 895 mean genes per cell.
For scRNA-seq, raw sequence reads were quality-checked using FastQC software. The Cell Ranger version 2.1.1 software suite from 10× Genomics (https://support.10× genomics.com/single-cell-gene-expression/software/downloads/latest) was used to process, align, and summarize unique molecular identifier (UMI) counts against the mouse mm10 assembly reference genome analysis set, obtained from the University of California Santa Cruz (UCSC). Raw, unfiltered count matrices were imported into R for further processing. Raw UMI count matrices were filtered using the Seurat v 3.0 R package (Butler et al., 2018) to remove: barcodes with very low (less than 200, empty wells) and very high (more than 3000, probably doublets) total UMI counts; matrices for which a high percentage of UMIs originated from mitochondrial features (more than 12%); and matrices for which fewer than 250 genes were expressed. Subsequently, the data were normalized using the SCTransform function, regressing out the following variables: total number of UMIs per cell and percentage of mitochondrial UMIs. Following normalization, the principal components were computed. The top principal components were identified using the ElbowPlot function and used for the UMAP dimensionality reduction. For clustering, Seurat was used in combination with Harmony software (Korsunsky et al., 2019) to correct the potential effects of technical differences between sequencing batches. The RunHarmonyo, RunUMAP( ), FindNeighbors( ), and FindClusters( ) functions were run for clustering and the percentage of mitochondrial features was considered to be a source of unwanted variation and was regressed out using the Seurat package. […] For the differential gene expression analysis, the FindMarker( ) function with default parameters was run for comparison between populations. The cell groups were annotated based on the marker gene analysis and canonical markers from the literature. […]

pancreatic cancer = pancreatic cancer patients; cited from earlier work
[2] = scRNAseq tumor epithelial cells

B1: PEGPH20: a PEGylated version of human recombinant PH20 hyaluronidase; clinical-grade pegylated hyaluronidase (Halozyme Therapeutics) (protein, UniProt P38567 36-490, looked up)
Hyaluronidase PH-20: LNFRAPPVIPNVPFLWAWNAPSEFCLGKFDEPLDMSLFSFIGSPRINATGQGVTIFYVDRLGYYPYIDSITGVTVNGGIPQKISLQDHLDKAKKDITFYMPVDNLGMAVIDWEEWRPTWARNWKPKDVYKNRSIELVQQQNVQLSLTEATEKAKQEFEKAGKDFLVETIKLGKLLRPNHLWGYYLFPDCYNHHYKKPGYNGSCFNVEIKRNDDLSWLWNESTALYPSIYLNTQQSPVAATLYVRNRVREAIRVSKIPDAKSPLPVFAYTRIVFTDQVLKFLSQDELVYTFGETVALGASGIVIWGTLSIMRSMKSCLLLDNYMETILNPYIINVTLAAKMCSQVLCQEQGVCIRKNWNSSDYLHLNPDNFAIQLEKGGKFTVRGKPTLEDLEQFSEKFYCSCYSTLSCKEKADVKDTDAVDVCIADGVCIDAFLKPPMETEEPQIFYNASPSTLS
modifications: PEGylated
TGFβ signals provided by myeloid cells and CD4+ Tregs ([1]; CellphoneDB): reduced | communications between TRSC and trophocytes ([1]; CellphoneDB): induced a high number | interaction between Spp1-Ptger4/Cd44 in fibroblasts and Spp1 interactions between telocytes and CD4+ Tregs ([1]; CellphoneDB): eliminates | interactions between TFSCs and telocytes ([1]; CellphoneDB): switching off | secretion of Ccl27a in TRSCs, Ccl28 in TcTAs and residual TFSCs, Ccl25 in TcTAs and TFSCs ([1]; CellphoneDB): increased | secretion of growth signals from telocytes to myeloid cells and CD4+ Tregs ([1]; CellphoneDB): repressed | Rspo1/3 in trophocytes ([1]; CellphoneDB, interact with Lgr5 in TRSC): enriched | presence of TFSCs (ANXA10+ staining) ([1]; IHC): strongly reduced | presence of TRSCs (CLU+ staining) ([1]; IHC): not reduced | ANXA10+/Alcian Blue and ANXA10+/MUC2+ TGCs ([1]; IHC and multiplex imaging): reduced | flow from TcTA to TFSC ([1]; RNA velocity trajectory analysis): total disruption | myeloid cells and CD4+ Tregs in tumors ([1]; VECTRA multiplex imaging): concomitant reduction | B, plasma, and CD8+ T cells infiltrating the tumors ([1]; VECTRA multiplex imaging, CD138 staining): allows CD8+ T cell infiltration; also recorded: strong recruitment | collagens, matrix metalloproteinases, and signatures related to matrix remodeling in the intermediate fibroblasts ([1]; differential gene expression): substantial reduction | vessel normalization signature ([1]; endothelial compartment): increased | angiogenesis, glycolysis, and hypoxia signatures ([1]; endothelium compartment): reduced | signatures related to interferon activation ([1]; endothelium compartment): increased | trophocyte levels (PDGRA−/CD31−/CD34+) ([1]; immunofluorescence, mainly at the crypt-bottom positions): strongly increased | PDGFRA+/NRG1+ fibroblasts at the luminal border ([1]; multiplex immunofluorescence): significantly reduced | expression of several ICIs, including Ctla4, in CD4+ Tregs ([1]; scRNAseq): higher expression | Cd47 immune checkpoint inhibitor expression ([1]; scRNAseq / CellphoneDB): clear increase | signatures corresponding to CD8+ T cells exhaustion, stem-like, and expansion ([1]; scRNAseq CD8+ T cells): enrichment | CD4+ Treg cells ([1]; scRNAseq T cells): reduced | CD8+/Treg ratio ([1]; scRNAseq T cells): increased | proportion of CD8+ Trm and CD8+ Tex cells ([1]; scRNAseq T cells): increased | proportion of tip cells and postcapillary and immature endothelial cells ([1]; scRNAseq endothelial compartment): reduced | proportion of intermediate fibroblast ([1]; scRNAseq fibroblasts): not affected | trophocytes ([1]; scRNAseq fibroblasts): concomitant accumulation | telocyte population ([1]; scRNAseq fibroblasts, HA degradation in vivo): virtually eliminated | proportion of TGCs ([1]; scRNAseq goblet cells): strongly reduced | levels of myeloid cell types (TAN, TAM, IM) ([1]; scRNAseq immune cells): reduced | proportion of T and B cells ([1]; scRNAseq immune cells): increased | proportion of TFSCs [1, 2]: clear reduction | proportion of TRSCs in the persistent tumor cell population [1, 2]: relative enrichment | proportion of TcTAs [1, 2]: limited proportional reduction | vessel disorganization signature ([1]; whole endothelial compartment): reversed | duration of response or progression-free or overall survival (pancreatic cancer): no improvement | response rate in the experimental arm (pancreatic cancer): higher
